For experiment [1], the target named is T1, human CCX CKR with N-terminal Flag epitope, stably expressed on HEK293 cells (human, UniProt Q9NPB9 1-350).
T1 construct: also called HEK293-CCX CKR cells
T1 sequence: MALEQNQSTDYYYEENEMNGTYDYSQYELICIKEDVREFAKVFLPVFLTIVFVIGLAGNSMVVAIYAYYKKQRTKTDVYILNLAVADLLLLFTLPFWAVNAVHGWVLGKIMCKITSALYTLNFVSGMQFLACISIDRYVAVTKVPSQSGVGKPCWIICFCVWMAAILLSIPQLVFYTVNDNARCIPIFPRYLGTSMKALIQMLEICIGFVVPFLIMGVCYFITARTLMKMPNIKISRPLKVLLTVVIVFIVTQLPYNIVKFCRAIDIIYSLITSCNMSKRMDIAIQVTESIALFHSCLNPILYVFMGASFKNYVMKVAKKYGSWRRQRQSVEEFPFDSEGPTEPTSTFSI
Description: radioligand binding competition on CCX CKR stable transfectants.

Experiment [2] deals with T1, human CCX CKR with N-terminal Flag …. Nature of the experiment: displacement of 125I-ELC (or 125I-TECK) from CCX CKR stable transfectants, cold chemokine at 200 nM.
The target is the same in experiment [3]. Description: radioligand binding competition on CCX CKR stable transfectants (similar experiments, not shown).

As a reminder, the Kd is the concentration at which binding is half-saturated.

B1: human ELC (EBI1 ligand chemokine) (ligand, UniProt Q99731 22-98, looked up)
chain: GTNDAEDCCLSVTQKPIPGYIVRNFHYLLIKDGCRVPAVVFTTLRGRQLCAPPDQPWVERIIQRLQRTSAKMKRRSS
notes: also called MIP-3beta; MIP3beta
As for B1, in experiment [1], the binding result is “binds”.

B2: murine ELC (ligand, UniProt O70460 26-108, looked up)
chain: GANDAEDCCLSVTQRPIPGNIVKAFRYLLNEDGCRVPAVVFTTLRGYQLCAPPDQPWVDRIIRRLKKSSAKNKGNSTRRSPVS
notes: also called murine version of ELC
Regarding B2, the binding result in experiment [1] is reported as “binds”.

B3: murine TECK (ligand, UniProt O35903 24-144, looked up)
chain: QGAFEDCCLGYQHRIKWNVLRHARNYHQQEVSGSCNLRAVRFYFRQKVVCGNPEDMNVKRAMRILTARKRLVHWKSASDSQTERKKSNHMKSKVENPNSTSVRSATLGHPRMVMMPRKTNN
notes: also called murine version of TECK
On to B3, for which the binding result in experiment [2] is recorded as “binds”.

B4: human TECK (thymus expressed chemokine) (ligand, UniProt O15444 24-150, looked up)
chain: QGVFEDCCLAYHYPIGWAVLRRAWTYRIQEVSGSCNLPAAIFYLPKRHRKVCGNPKSREVQRAMKLLDARNKVFAKLHHNTQTFQAGPHAVKKLSSGNSKLSSSKFSNPISSSKRNVSLLISANSGL
notes: also called soluble TECK; cold TECK
Turning to B4, the binding result in experiment [2] is “binds”.

B5: murine CTACK (ligand, UniProt Q9Z1X0 26-120, looked up)
chain: LPLPSSTSCCTQLYRQPLPSRLLRRIVHMELQEADGDCHLQAVVLHLARRSVCVHPQNRSLARWLERQGKRLQGTVPSLNLVLQKKMYSHPQQQN
notes: also called mCTACK; CCL27
In the case of B5, the Kd in experiment [3] is around 9 nM.

B6: human SLC (secondary lymphoid-tissue chemokine) (ligand, UniProt O00585 24-134, looked up)
chain: SDGGAQDCCLKYSQRKIPAKVVRSYRKQEPSLGCSIPAILFLPRKRSQAELCADPKELWVQQLMQHLDKTPSPQKPAQGCRKDRGASKTGKKGKGSKGCKRTERSQTPKGP
notes: also called 6Ckine; soluble SLC
B6: the binding result in experiment [2] is reported as “binds”.

B7: mMIP-1 gamma (murine macrophage inflammatory protein-1 gamma) (ligand, UniProt P51670 22-122, looked up)
chain: QITHATETKEVQSSLKAQQGLEIEMFHMGFQDSSDCCLSYNSRIQCSRFIGYFPTSGGCTRPGIIFISKRGFQVCANPSDRRVQRCIERLEQNSQPRTYKQ
notes: also called mMIP-1γ; CCF18
As to B7, in experiment [2], the binding result is “binds”.

The record behind these values is patent USRE39849 (CHEMOCENTRYX, dated 2007).
